These results are taken from EP4628507A1.

In general, EC50 refers to the concentration needed to bring the measured effect to its halfway point.

Read-outs that look alike come from different tables or passages of the source.

The target of assay [1] is human 4-1BB on the surface of HEK293-Hu4-1BB cells (human) (UniProt Q07011). Kind of assay: cell-based or functional assay.
The target of assay [2] is human CD16A-V176 on CHO / CHO-K1 cells (human) (UniProt P08637). The assay is described as follows: flow cytometry on CHO-K1-CD16A V176 cells.
Sequence of human CD16A-V176 on CHO / CHO-K1 cells (human) (P08637 17-254 F176V): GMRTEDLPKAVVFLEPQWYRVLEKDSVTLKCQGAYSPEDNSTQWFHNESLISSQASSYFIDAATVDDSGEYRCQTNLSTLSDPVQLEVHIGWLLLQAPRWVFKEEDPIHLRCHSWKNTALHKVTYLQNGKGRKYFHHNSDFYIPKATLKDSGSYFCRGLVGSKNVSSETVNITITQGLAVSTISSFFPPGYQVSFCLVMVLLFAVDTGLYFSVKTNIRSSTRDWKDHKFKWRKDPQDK
The target in assay [3] is human CLDN18.2 on cells (NUGC4-hi18.2 cells; SNU601 cells in the ADCC assay) (human) (UniProt P56856). The assay is described as follows: flow cytometry on NUGC4-hi18.2 cells. A general note: In flow cytometry, cells or beads pass a laser one at a time.
Assay [4] has the same target. The assay is described as follows: cell-based or functional assay.
The target of assay [5] is human 4-1BB on the surface of HEK293-Hu4-1BB cells (human) (UniProt Q07011). Kind of assay: cell-based or functional assay. The source holds these as a separate data set.
Assay [6] has as its target human CD16A-V176 on CHO / CHO-K1 cells (human) (UniProt P08637). Kind of assay: flow cytometry on CHO-K1-CD16A V176 cells, isotype control.
The target in assay [7] is human 4-1BB on the surface of HEK293-Hu4-1BB cells (human) (UniProt Q07011). Kind of assay: flow cytometry on HEK293-Hu4-1BB cells, isotype control.
The target is the same in assay [8]. The assay is described as above. This is another data set of the same source.
For assay [9], the target named is human CLDN18.2 on cells (NUGC4-hi18.2 cells; SNU601 cells in the ADCC assay) (human) (UniProt P56856). The assay is described as follows: flow cytometry on NUGC4-hi18.2 cells, isotype control.
The target of assay [10] is human 4-1BB on the surface of HEK293-Hu4-1BB cells (human) (UniProt Q07011). The assay is described as follows: flow cytometry on HEK293-Hu4-1BB cells, isotype control. This is another data set of the same source.

Sequence of human 4-1BB on the surface of HEK293-Hu4-1BB cells (human) (Q07011 24-255): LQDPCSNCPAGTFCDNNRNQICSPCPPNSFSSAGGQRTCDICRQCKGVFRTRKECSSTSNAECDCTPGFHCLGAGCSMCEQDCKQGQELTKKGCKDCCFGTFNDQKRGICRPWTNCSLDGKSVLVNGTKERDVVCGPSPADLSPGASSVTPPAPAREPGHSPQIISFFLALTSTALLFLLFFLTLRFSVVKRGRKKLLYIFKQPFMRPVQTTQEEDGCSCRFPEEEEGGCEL

In assay [1], ADG106 (antibody) came in with a Fold change in Emax, 4-1BB/NF-κB luciferase reporter, CLDN18.2 cross-linking of 1.42 fold and a Fold change in Emax, 4-1BB/NF-κB luciferase reporter, no cross-linking of 1.13 fold.

In the case of IMAB362 (antibody), in assay [2], the EC50 is 14.8 nM and the Maximal fluorescence value stood at 3390.

In assay [3], TJ-CD4B (bispecific antibody) returned an EC50 of 16.2 nM and a Maximal fluorescence value of 89300. In assay [2], this substance came in with a Maximal fluorescence value of 113.

In assay [4], isotype IgG1 antibody (control) yielded an ADCC maximum killing rate, NUGC4-hi18.2 target cells, PBMC donor S2001102 (V176) of 21.8%; an ADCC maximum killing rate, NUGC4-hi18.2 target cells, PBMC donor SC190061 (F176) of 10.7%; an ADCC maximum killing rate, SNU601 target cells, PBMC donor S2001102 (V176) of 22.7%; an ADCC maximum killing rate, SNU601 target cells, PBMC donor SC190061 (F176) of 11.4%. This substance showed an ADCP maximum phagocytosis rate, macrophages against NUGC4-hi18.2 cells in [4] of 19.8%. In [5], the Emax, 4-1BB/NF-κB luciferase reporter, FcγRIIb cross-linking (relative to the antibody-free group) came to 1.12; the Emax, 4-1BB/NF-κB luciferase reporter, no FcγRIIb cross-linking (relative to the antibody-free group) came to 1.1; the Fold change in Emax, 4-1BB/NF-κB luciferase reporter, CLDN18.2 cross-linking stood at 1.17 fold; the Fold change in Emax, 4-1BB/NF-κB luciferase reporter, no CLDN18.2 cross-linking turned out to be 1.16 fold. In [1], this substance showed a Fold change in Emax, 4-1BB/NF-κB luciferase reporter, CLDN18.2 cross-linking of 1.15 fold and a Fold change in Emax, 4-1BB/NF-κB luciferase reporter, no cross-linking of 1.17 fold. For the same substance, the Maximal fluorescence value in assay [6] worked out at 1590. The substance also had a Maximal fluorescence value in assay [7] of 67. This substance had a Maximal fluorescence value in assay [8] of 123. In assay [9], this substance returned a Maximal fluorescence value of 107. For the same substance, in [10], the Maximal fluorescence value is 106.
